Test results published in patent publication US20140087995A1 (published 2014).
Numbered stars: 1 amine (or outer) side, 2 acyl side, 3 side chain; on linkers, the order of the positions; unused ones are H or OH. Bridge positions count the residues as written; N and C are the ends. Square brackets hold non-standard residues; d marks the D form. Side chains are listed from the residue outwards. Ends that are not written are not given here. * marks the point of attachment. C20 diacid = O=C(O)CCCCCCCCCCCCCCCCCCC(=O)*; γGlu = O=C(O)[C@H](CCC(=O)[*:2])N[*:1]

Columns and labels:
[1] = target: T1, human amylin receptor (amylin 3(a) receptor: human calcitonin receptor coexpressed with RAMP-3) (human, UniProt P30988 25-474; O60896 24-148); test: cell-based or functional assay
T1 sequence (looked up) 1: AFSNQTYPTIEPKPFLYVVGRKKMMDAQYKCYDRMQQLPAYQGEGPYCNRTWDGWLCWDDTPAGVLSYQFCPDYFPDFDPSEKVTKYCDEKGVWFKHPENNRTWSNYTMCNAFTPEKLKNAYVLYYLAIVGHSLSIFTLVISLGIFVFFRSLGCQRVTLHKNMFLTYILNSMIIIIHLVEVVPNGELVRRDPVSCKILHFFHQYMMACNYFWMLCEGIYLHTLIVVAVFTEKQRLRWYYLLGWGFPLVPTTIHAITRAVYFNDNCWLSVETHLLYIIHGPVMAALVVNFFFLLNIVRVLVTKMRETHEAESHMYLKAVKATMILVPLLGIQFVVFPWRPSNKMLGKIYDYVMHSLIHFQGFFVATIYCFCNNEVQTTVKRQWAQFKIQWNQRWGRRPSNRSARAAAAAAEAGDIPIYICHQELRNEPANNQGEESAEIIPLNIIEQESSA
T1 sequence (looked up) 2: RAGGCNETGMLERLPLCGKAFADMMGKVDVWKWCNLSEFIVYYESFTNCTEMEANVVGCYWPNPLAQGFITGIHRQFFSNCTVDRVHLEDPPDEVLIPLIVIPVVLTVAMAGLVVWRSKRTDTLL

[2] = target: T2, human calcitonin receptor (human, UniProt P30988 25-474); test: cell-based or functional assay
T2 sequence (looked up): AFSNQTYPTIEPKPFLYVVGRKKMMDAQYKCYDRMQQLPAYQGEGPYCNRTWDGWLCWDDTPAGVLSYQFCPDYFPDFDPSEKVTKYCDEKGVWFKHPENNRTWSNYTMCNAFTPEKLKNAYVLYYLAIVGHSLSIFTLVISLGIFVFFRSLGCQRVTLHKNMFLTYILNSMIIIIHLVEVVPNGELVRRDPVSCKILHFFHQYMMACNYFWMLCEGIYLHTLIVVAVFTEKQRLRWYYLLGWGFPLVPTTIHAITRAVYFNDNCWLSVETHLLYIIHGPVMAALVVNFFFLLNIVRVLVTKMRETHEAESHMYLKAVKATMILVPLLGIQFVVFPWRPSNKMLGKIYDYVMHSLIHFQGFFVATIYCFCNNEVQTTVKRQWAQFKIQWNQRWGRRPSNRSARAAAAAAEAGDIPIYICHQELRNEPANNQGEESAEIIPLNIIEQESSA

Binder	hAmylin-R funct. EC50 (pM) [1]	Ratio hCT/hAmylin funct. [2]	hCTR funct. EC50 (pM) [2]
K([γGlu-C20 diacid])CNTATCATQRLAHFLRHSSPNFGAIPSSTNVGHNTY-NH2 (disulfide 2-7; N-terminus assumed; SMILES CC[C@H](C)[C@H](NC(=O)[C@H](C)NC(=O)CNC(=O)[C@H](Cc1ccccc1)NC(=O)[C@H](CC(N)=O)NC(=O)[C@@H]1CCCN1C(=O)[C@H](CO)NC(=O)[C@H](CO)NC(=O)[C@H](Cc1c[nH]cn1)NC(=O)[C@H](CCCNC(=N)N)NC(=O)[C@H](CC(C)C)NC(=O)[C@H](Cc1ccccc1)NC(=O)[C@H](Cc1c[nH]cn1)NC(=O)[C@H](C)NC(=O)[C@H](CC(C)C)NC(=O)[C@H](CCCNC(=N)N)NC(=O)[C@H](CCC(N)=O)NC(=O)[C@@H](NC(=O)[C@H](C)NC(=O)[C@@H]1CSSC[C@H](NC(=O)[C@@H](N)CCCCNC(=O)CC[C@H](NC(=O)CCCCCCCCCCCCCCCCCCC(=O)O)C(=O)O)C(=O)N[C@@H](CC(N)=O)C(=O)N[C@@H]([C@@H](C)O)C(=O)N[C@@H](C)C(=O)N[C@@H]([C@@H](C)O)C(=O)N1)[C@@H](C)O)C(=O)N1CCC[C@H]1C(=O)N[C@@H](CO)C(=O)N[C@@H](CO)C(=O)N[C@H](C(=O)N[C@@H](CC(N)=O)C(=O)N[C@H](C(=O)NCC(=O)N[C@@H](Cc1c[nH]cn1)C(=O)N[C@@H](CC(N)=O)C(=O)N[C@H](C(=O)N[C@@H](Cc1ccc(O)cc1)C(N)=O)[C@@H](C)O)C(C)C)[C@@H](C)O, also called compound 81)	130 pM	13.3	1730 pM
K([γGlu-γGlu-C20 diacid])CNTATCATQRLAEFLRHSSPNFGAIPSSTNVGHETY-NH2 (disulfide 2-7; N-terminus assumed; SMILES CC[C@H](C)[C@H](NC(=O)[C@H](C)NC(=O)CNC(=O)[C@H](Cc1ccccc1)NC(=O)[C@H](CC(N)=O)NC(=O)[C@@H]1CCCN1C(=O)[C@H](CO)NC(=O)[C@H](CO)NC(=O)[C@H](Cc1c[nH]cn1)NC(=O)[C@H](CCCNC(=N)N)NC(=O)[C@H](CC(C)C)NC(=O)[C@H](Cc1ccccc1)NC(=O)[C@H](CCC(=O)O)NC(=O)[C@H](C)NC(=O)[C@H](CC(C)C)NC(=O)[C@H](CCCNC(=N)N)NC(=O)[C@H](CCC(N)=O)NC(=O)[C@@H](NC(=O)[C@H](C)NC(=O)[C@@H]1CSSC[C@H](NC(=O)[C@@H](N)CCCCNC(=O)CC[C@H](NC(=O)CC[C@H](NC(=O)CCCCCCCCCCCCCCCCCCC(=O)O)C(=O)O)C(=O)O)C(=O)N[C@@H](CC(N)=O)C(=O)N[C@@H]([C@@H](C)O)C(=O)N[C@@H](C)C(=O)N[C@@H]([C@@H](C)O)C(=O)N1)[C@@H](C)O)C(=O)N1CCC[C@H]1C(=O)N[C@@H](CO)C(=O)N[C@@H](CO)C(=O)N[C@H](C(=O)N[C@@H](CC(N)=O)C(=O)N[C@H](C(=O)NCC(=O)N[C@@H](Cc1c[nH]cn1)C(=O)N[C@@H](CCC(=O)O)C(=O)N[C@H](C(=O)N[C@@H](Cc1ccc(O)cc1)C(N)=O)[C@@H](C)O)C(C)C)[C@@H](C)O)	445 pM	15.8	7050 pM
K([γGlu-γGlu-C20 diacid])CNTATCATQRLANFLRHSSPNFGAIPSSTPVGPRTY-NH2 (disulfide 2-7; N-terminus assumed; SMILES CC[C@H](C)[C@H](NC(=O)[C@H](C)NC(=O)CNC(=O)[C@H](Cc1ccccc1)NC(=O)[C@H](CC(N)=O)NC(=O)[C@@H]1CCCN1C(=O)[C@H](CO)NC(=O)[C@H](CO)NC(=O)[C@H](Cc1c[nH]cn1)NC(=O)[C@H](CCCNC(=N)N)NC(=O)[C@H](CC(C)C)NC(=O)[C@H](Cc1ccccc1)NC(=O)[C@H](CC(N)=O)NC(=O)[C@H](C)NC(=O)[C@H](CC(C)C)NC(=O)[C@H](CCCNC(=N)N)NC(=O)[C@H](CCC(N)=O)NC(=O)[C@@H](NC(=O)[C@H](C)NC(=O)[C@@H]1CSSC[C@H](NC(=O)[C@@H](N)CCCCNC(=O)CC[C@H](NC(=O)CC[C@H](NC(=O)CCCCCCCCCCCCCCCCCCC(=O)O)C(=O)O)C(=O)O)C(=O)N[C@@H](CC(N)=O)C(=O)N[C@@H]([C@@H](C)O)C(=O)N[C@@H](C)C(=O)N[C@@H]([C@@H](C)O)C(=O)N1)[C@@H](C)O)C(=O)N1CCC[C@H]1C(=O)N[C@@H](CO)C(=O)N[C@@H](CO)C(=O)N[C@H](C(=O)N1CCC[C@H]1C(=O)N[C@H](C(=O)NCC(=O)N1CCC[C@H]1C(=O)N[C@@H](CCCNC(=N)N)C(=O)N[C@H](C(=O)N[C@@H](Cc1ccc(O)cc1)C(N)=O)[C@@H](C)O)C(C)C)[C@@H](C)O)	333 pM	26	8660 pM
K([γGlu-γGlu-C20 diacid])CNTATCATQRLADFLRHSSPNFGAIPSSTNVGPRTY-NH2 (disulfide 2-7; N-terminus assumed; SMILES CC[C@H](C)[C@H](NC(=O)[C@H](C)NC(=O)CNC(=O)[C@H](Cc1ccccc1)NC(=O)[C@H](CC(N)=O)NC(=O)[C@@H]1CCCN1C(=O)[C@H](CO)NC(=O)[C@H](CO)NC(=O)[C@H](Cc1c[nH]cn1)NC(=O)[C@H](CCCNC(=N)N)NC(=O)[C@H](CC(C)C)NC(=O)[C@H](Cc1ccccc1)NC(=O)[C@H](CC(=O)O)NC(=O)[C@H](C)NC(=O)[C@H](CC(C)C)NC(=O)[C@H](CCCNC(=N)N)NC(=O)[C@H](CCC(N)=O)NC(=O)[C@@H](NC(=O)[C@H](C)NC(=O)[C@@H]1CSSC[C@H](NC(=O)[C@@H](N)CCCCNC(=O)CC[C@H](NC(=O)CC[C@H](NC(=O)CCCCCCCCCCCCCCCCCCC(=O)O)C(=O)O)C(=O)O)C(=O)N[C@@H](CC(N)=O)C(=O)N[C@@H]([C@@H](C)O)C(=O)N[C@@H](C)C(=O)N[C@@H]([C@@H](C)O)C(=O)N1)[C@@H](C)O)C(=O)N1CCC[C@H]1C(=O)N[C@@H](CO)C(=O)N[C@@H](CO)C(=O)N[C@H](C(=O)N[C@@H](CC(N)=O)C(=O)N[C@H](C(=O)NCC(=O)N1CCC[C@H]1C(=O)N[C@@H](CCCNC(=N)N)C(=O)N[C@H](C(=O)N[C@@H](Cc1ccc(O)cc1)C(N)=O)[C@@H](C)O)C(C)C)[C@@H](C)O, also called compound 130)	162 pM	44.9	7280 pM
K([γGlu-γGlu-C20 diacid])CNTATCATQRLAEFLRHSSPNFGAIPSSTNVGSRTY-NH2 (disulfide 2-7; N-terminus assumed; SMILES CC[C@H](C)[C@H](NC(=O)[C@H](C)NC(=O)CNC(=O)[C@H](Cc1ccccc1)NC(=O)[C@H](CC(N)=O)NC(=O)[C@@H]1CCCN1C(=O)[C@H](CO)NC(=O)[C@H](CO)NC(=O)[C@H](Cc1c[nH]cn1)NC(=O)[C@H](CCCNC(=N)N)NC(=O)[C@H](CC(C)C)NC(=O)[C@H](Cc1ccccc1)NC(=O)[C@H](CCC(=O)O)NC(=O)[C@H](C)NC(=O)[C@H](CC(C)C)NC(=O)[C@H](CCCNC(=N)N)NC(=O)[C@H](CCC(N)=O)NC(=O)[C@@H](NC(=O)[C@H](C)NC(=O)[C@@H]1CSSC[C@H](NC(=O)[C@@H](N)CCCCNC(=O)CC[C@H](NC(=O)CC[C@H](NC(=O)CCCCCCCCCCCCCCCCCCC(=O)O)C(=O)O)C(=O)O)C(=O)N[C@@H](CC(N)=O)C(=O)N[C@@H]([C@@H](C)O)C(=O)N[C@@H](C)C(=O)N[C@@H]([C@@H](C)O)C(=O)N1)[C@@H](C)O)C(=O)N1CCC[C@H]1C(=O)N[C@@H](CO)C(=O)N[C@@H](CO)C(=O)N[C@H](C(=O)N[C@@H](CC(N)=O)C(=O)N[C@H](C(=O)NCC(=O)N[C@@H](CO)C(=O)N[C@@H](CCCNC(=N)N)C(=O)N[C@H](C(=O)N[C@@H](Cc1ccc(O)cc1)C(N)=O)[C@@H](C)O)C(C)C)[C@@H](C)O, also called compound 89)	404 pM	–	11200 pM
K([γGlu-γGlu-C20 diacid])CNTATCATQRLA[dD]FLRHSSPNFGAIPSSTNVGSRTY-NH2 (disulfide 2-7; N-terminus assumed; SMILES CC[C@H](C)[C@H](NC(=O)[C@H](C)NC(=O)CNC(=O)[C@H](Cc1ccccc1)NC(=O)[C@H](CC(N)=O)NC(=O)[C@@H]1CCCN1C(=O)[C@H](CO)NC(=O)[C@H](CO)NC(=O)[C@H](Cc1c[nH]cn1)NC(=O)[C@H](CCCNC(=N)N)NC(=O)[C@H](CC(C)C)NC(=O)[C@H](Cc1ccccc1)NC(=O)[C@@H](CC(=O)O)NC(=O)[C@H](C)NC(=O)[C@H](CC(C)C)NC(=O)[C@H](CCCNC(=N)N)NC(=O)[C@H](CCC(N)=O)NC(=O)[C@@H](NC(=O)[C@H](C)NC(=O)[C@@H]1CSSC[C@H](NC(=O)[C@@H](N)CCCCNC(=O)CC[C@H](NC(=O)CC[C@H](NC(=O)CCCCCCCCCCCCCCCCCCC(=O)O)C(=O)O)C(=O)O)C(=O)N[C@@H](CC(N)=O)C(=O)N[C@@H]([C@@H](C)O)C(=O)N[C@@H](C)C(=O)N[C@@H]([C@@H](C)O)C(=O)N1)[C@@H](C)O)C(=O)N1CCC[C@H]1C(=O)N[C@@H](CO)C(=O)N[C@@H](CO)C(=O)N[C@H](C(=O)N[C@@H](CC(N)=O)C(=O)N[C@H](C(=O)NCC(=O)N[C@@H](CO)C(=O)N[C@@H](CCCNC(=N)N)C(=O)N[C@H](C(=O)N[C@@H](Cc1ccc(O)cc1)C(N)=O)[C@@H](C)O)C(C)C)[C@@H](C)O, Residue 14 is D-aspartic acid (printed 14d))	383 pM	–	100000 pM
